Measurements published in publication doi:10.1101/2022.01.04.474980.

Target: FRQ WT peptide … (FFD and the double arginines) (N. crassa)
Test: peptide or protein array

normalized microarray intensity: 64
Substance: FREQUENCY-Interacting RNA Helicase, FRHΔ100 (E. coli expressed, 6x His-tag) (from UniProt Q1K502 100-1106) (domain or fragment)
